Measurements taken from PMC9638894.

Key:
[1] = target: type IF CRISPR RNA guided surveillance complex (Csy) (UniProt Q02MM2); assay: ITC; AcrIF9 or AcrIF2 binding to the Csy complex; conditions not told in the text shown (Supplemental Figure S8)
[2] = target: type IF CRISPR RNA guided surveillance complex (Csy) (UniProt Q02MM2); assay: differential scanning fluorimetry; purified Csy (0.323 uM) or AcrIF2-bound Csy (0.475 uM) in 100 mM citrate phosphate buffer pH 7.5 with SYPRO orange; 25°C to 95°C at 1°C/min; maximum intensity of each curve compared

Chain of AcrIF2 (natural protein) (Q6TM72 whole entry): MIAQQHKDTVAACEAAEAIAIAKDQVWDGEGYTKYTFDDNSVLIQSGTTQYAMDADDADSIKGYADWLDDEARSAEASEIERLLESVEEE

dH [1]: < 0
increase in temperature at the maximum DSF intensity compared to unbound Csy [2]: 3 °C
Substance: AcrIF2 (natural protein)
